Laboratory results from the supplement of paper PMC9170038.

Test system: MS2 coat protein
Assay: apparent KD of MS2 coat protein; designed switch direction (-1 OFF switch, 1 ON switch): 1; higher = weaker reporter binding
Outline: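 Each step of the titration lasted 0.8–1.5 h at the lowest concentration and 10–20 min at the highest. The protein, SNAP-549-labelled MS2 coat protein, went from 0.7 or 1.5 nM doubling to 3 µM over RNA switches transcribed on Illumina chips by stalled E. coli RNA polymerase. Normalised cluster fluorescence was curve-fitted, and the per-design median over clusters is given as apparent KD.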

[1] = input ligand: microRNA oligo, concentration not stated
[2] = Eterna round: R95, input ligand: FMN 200 uM
[3] = Eterna round: R95, input ligand: microRNA oligo, concentration not stated
[4] = Eterna round: R95, input ligand: none

Sequence | apparent KD of MS2 coat protein (input ligand: FMN 200 uM) [nM] | apparent KD of MS2 coat protein [1] [nM] | apparent KD of MS2 coat protein (input ligand: none) [nM] | apparent KD of MS2 coat protein [2] [nM] | apparent KD of MS2 coat protein [3] [nM] | apparent KD of MS2 coat protein [4] [nM]
CCAAAGUACAAUUUAGAUCUACAUGAGGAUCACCCAUGUACUGAGGAUAUCAGCUCGAAUAGAGCUGAGAAGGCAGAAUUAAUU [SSNG3/4-A1] (Eterna round: R96, puzzle: Same State NG 3) | 155 | 155 | 317 | – | – | –
CGUAGGUAGCUGGAGGAUAUUCGAGUGGUAACAUGAGGAUCACCCAUGUGGAGUUAGUUACAUGAGGAGAAGGCUAGCUGCCUGC [JL-ss2-3.17 JL mod] (puzzle: Same State 2) | – | – | – | 36.7 | 61 | 74.5
GGUAAACAUGAGGAUCACCCAUGUAAUAAUAUGGGAGGAUAUGGGAAUUAAUUAAUUAAACCAGAAGGCCUAAUUG [Mat - Same State 1 - D85] (puzzle: Same State 1) | – | – | – | – | 167 | –
GACAAUCUAUCUGAGGAUAUCAUGAAAAAAACAUGAGGAUCACCCAUGUGCAGGAAAACUGCAUAUGAGAAGGCAGAUAGAUUGG [salish99_SS2_r3_011] (puzzle: Same State 2) | – | – | – | 31.2 | 485 | 613
AGUCCAGCCUGAGCUGGACAAGAGCAUGUACAUGAGGAUCACCCAUGUUCAUGUACAAGCUUUUUGCUCGUCUUAAA [Zipper 52 - 2] (puzzle: Sensor for hsa-mir-208a) | – | – | – | 399 | 12.7 | 565
ACAUGAGAGUUAGGAUAUCUUGUACCUACAUGUGACAUGAGGAUCACCCAUGUGGUAAGUAUGAGGGAGAAGGAACAGAUAUGU [Equivalence 43 - Jieux - Same State NG 2] (Eterna round: R96, puzzle: Same State NG 2) | – | 27.3 | – | – | – | –
GACAAUCUAUCUGAGGAUAUCAUGAAAAAAACAUGAGGAUCACCCAUGUGCAGGAAAACUGCAUAUGAGAAGGCAGAUAGAUUGU [salish99_SS2_r3_010] (puzzle: Same State 2) | – | – | – | 45.3 | 689 | 627
AUAAGGCAAGCUUUUUUCUCGUAGUGUAAACAUGAGGAUCACCCAUGUGCCCACCCUAGAUCUUUGGAUCGCAGAAC [Atrageus] (puzzle: Sensor for hsa-mir-208a) | – | – | – | 22.8 | 16.8 | 26.8
ACAAGCUUUUCUGUAUUGAAAGGUGGGAUACAUGAGGAUCACCCAUGUUUUUUCGUUUGUUUUGUUCCUCGUCUUAU [JR_SHM208A_Sub090] (puzzle: Sensor for hsa-mir-208a) | – | – | – | 87.7 | 23.9 | 116
UCUUGGUUUUUGCUCGUUUUUUGUGUUGAACAUGAGGAUCACCCAUGUAUUGUACGGUCCAAUUUAAUGAUGGUCCA [JMF 36] (puzzle: Sensor for hsa-mir-208a) | – | – | – | 30.8 | 17.8 | 32.4
CGUCGUUUGAUAGGAUAUCGCUAUACAUGAGGAUCACCCAUGUUUACCACGCUGGUUUUUCUUUCCGAGAAGGAUUCUGAUGUU [salish99_SSNG02_r04_022] (Eterna round: R96, puzzle: Same State NG 2) | 30.9 | 23.8 | 33.5 | – | – | –
AUUAUUAAUGCAGGAUAUGAUUAACAUGAGGAUCACCCAUGUGGUGUUGUGAGUAAGGAGAGUGAUCAGAAGGGCAAUUUUUUU [JMF's solution 7] (Eterna round: R96, puzzle: Same State NG 2) | 382 | 633 | 340 | – | – | –
AAUUAUUAACAUGAGGAUCACCCAUGUAUUACUUCAUGUUUUUGCUCGUCUAUUAUUAUUAUUAUUAUUAUUAUUAA [Most simple design] (puzzle: Sensor for hsa-mir-208a version 2) | – | – | – | 282 | 40.1 | 340
UGCCUGAGUCGAGGAUAUUAUGGAUCCUUUAAUACAUGAGGAUCACCCAUGUAAUUAAUUAUACAUGAGAAGGCGACUCAGGCU [SSNG2/11-A3] (Eterna round: R96, puzzle: Same State NG 2) | – | 58.9 | – | – | – | –
GGCUAUCGCGUACGAUAGCUUAAGCAUGUACAUGAGGAUCACCCAUGUCAUGUACAGGCUUUUUGCUCGUCUUAUUG [JL-shm-2.35 JL mod] (puzzle: Sensor for hsa-mir-208a) | – | – | – | 517 | 17 | 467
ACUUAGUACAAUUUAGAUCUACAUGAGGAUCACCCAUGUACUGAGGAUAUCAGCUCGAUUAGAGCUGAGAAGGCAGUAGUACUA [SSNG3/9-A2] (Eterna round: R96, puzzle: Same State NG 3) | 33.3 | 35 | 53.9 | – | – | –
GGUCGGACUCACAUGAGGAUCACCCAUGUUGGCGAAAGCCGACAGGAUAUCUGUCCGAAAAGGUCAGAGAAGGGUUAACCGACC [Fiskers NG3ss - 61] (Eterna round: R96, puzzle: Same State NG 3) | 397 | 326 | 159 | – | – | –
GGAGCCAAGGCAGGAUAUUCAUAUUAAUAACAUGAGGAUCACCCAUGUAAGGCCAGAAGGCCUUGGGAGAAGGGCCAUGGCUCG [Xeonanis - 13 mod2] (Eterna round: R96, puzzle: Same State NG 2) | 21.4 | 70.4 | 106 | – | – | –
UGUUGUAUUACAGGAUAUCUAGGAUUUUUAUUUAGAGAAGGGUAUUCACAUGAGGAUCACCCAUGUAUAUACGAGGAAGUUGUG [JMF's solution 31] (Eterna round: R96, puzzle: Same State NG 1) | – | 30.6 | – | – | – | –
GCCGCAAGGGCAGGAUAUGGGUCCAGAACGCAAAUGCGCUCUGGUACAUGAGGAUCACCCAUGUCCCAGAAGGGCCCAAGCGGC [Isusara] (Eterna round: R96, puzzle: Same State NG 2) | 16.5 | 96.5 | 106 | – | – | –
AGUCCAGCCUGAGCUGGACAAAAGCAUGUACAUGAGGAUCACCCAUGUUCAUGUACAAGCUUUUUGCUCGUCUUAAU [salish99_208a_r3_027] (puzzle: Sensor for hsa-mir-208a) | – | – | – | 480 | 14 | 643
GUAGCAUACCGAGGAUAUUCAUAUACAUGAGGAUCACCCAUGUUUAUAGGUCGAUUACGACCUUGGGAGAAGGCGGAAUGCUAC [Xeonanis - 20 Mod31] (Eterna round: R96, puzzle: Same State NG 2) | 10.8 | 9.68 | 13.9 | – | – | –
AUACAUGAGGAUCACCCAUGUGAGCAGAGAUAUCUGAUGUACAAGGAUAUCCGAGGGAUCCCGAUGGAGAAGGUGUGCCACCUG [Eternabot solution 22] (Eterna round: R96, puzzle: Same State NG 3) | 57.1 | 43 | 55.9 | – | – | –
AGGUACAACGGAGGAUAUAAUAGUCUAUAGACGUUAGAAGGCCGGGCCUUCACAUGAGGAUCACCCAUGUCUCUGGAGGCGCCU [Eternabot solution 11] (Eterna round: R96, puzzle: Same State NG 1) | – | 16.8 | – | – | – | –
